Measured values published in publication PMC7592216.

Test system: eIF4E (eukaryotic translation initiation factor 4E, cap-binding protein) (wheat)
Assay: EMSA
Settings: 10 mM HEPES pH 7.5, 20 mM KCl, 1 mM DTT, 3 mM MgCl2, 0.1 ug/ul yeast tRNA, 1 ug/ul BSA, 1 U/ul RNaseOUT, 20 mM Tris-HCl/10% glycerol; 25 min on ice; 10 fmol …

MTE (MCMV 3' CITE), uncapped
Kd: 80 nM
